According to patent US20130288983A1 (Amgen, published 2013):
Positions count from the first letter of the chain named. Names may count otherwise.

T1: Activin A (Homo sapiens (Human), UniProt P08476 311-426)
T1 sequence: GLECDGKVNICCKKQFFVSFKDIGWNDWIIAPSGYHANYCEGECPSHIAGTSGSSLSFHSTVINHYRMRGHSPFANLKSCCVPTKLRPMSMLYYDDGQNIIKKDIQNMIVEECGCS

B1: ActRIIB-IgG1 Fc E28C, linker GGGGS (Fc fusion)
chain: SGRGEAETRCCIYYNANWELERTNQSGLERCEGEQDKRLHCYASWRNSSGTIELVKKGCWLDDFNCYDRQECVATEENPQVYFCCCEGNFCNERFTHLPEAGGPEVTYEPPPTAPTGGGGSAPELLGGPSVFLFPPKPKDILMISRTPEVTCVVVDVSHEDPEVKFNWYVGGVEVHNAKTKPREEQYNSTYRVVSVLTVLHQDWLNGKEYKCKVSNKALPAPIEKTISKAKGQPREPQVYTLPPSRDELTKNQVSLTCLVKGFYPSDIAVEWESNGQPENNYKTTPPVLDSDGSFFLYSKLTVDKSRWQQGNVFSCSVMHEALHNHYTQKSLSLSPGK
notes: Tested from conditioned media
B2: ActRIIB-IgG1 Fc E28D, linker GGGGS (Fc fusion)
chain: B1 chain with C10D
notes: Tested from conditioned media
B3: ActRIIB-IgG1 Fc E28G, linker GGGGS (Fc fusion)
chain: B1 chain with C10G
notes: Tested from conditioned media
B4: ActRIIB-IgG1 Fc E28N, linker GGGGS (Fc fusion)
chain: B1 chain with C10N
notes: Tested from conditioned media
B5: ActRIIB-IgG1 Fc E28P, linker GGGGS (Fc fusion)
chain: B1 chain with C10P
notes: Tested from conditioned media
B6: ActRIIB-IgG1 Fc E28R, linker GGGGS (Fc fusion)
chain: B1 chain with C10R
notes: Tested from conditioned media
B7: ActRIIB-IgG1 Fc E28S, linker GGGGS (Fc fusion)
chain: B1 chain with C10S
notes: Tested from conditioned media
B8: ActRIIB-IgG1 Fc E28T, linker GGGGS (Fc fusion)
chain: B1 chain with C10T
notes: Tested from conditioned media
B9: ActRIIB-IgG1 Fc R40C, linker GGGGS (Fc fusion)
chain: B1 chain with C10E, R22C
notes: Tested from conditioned media
B10: ActRIIB-IgG1 Fc R40F, linker GGGGS (Fc fusion)
chain: B1 chain with C10E, R22F
notes: Tested from conditioned media
B11: ActRIIB-IgG1 Fc R40I, linker GGGGS (Fc fusion)
chain: B1 chain with C10E, R22I
notes: Tested from conditioned media
B12: ActRIIB-IgG1 Fc R40L, linker GGGGS (Fc fusion)
chain: B1 chain with C10E, R22L
notes: Tested from conditioned media
B13: ActRIIB-IgG1 Fc R40P, linker GGGGS (Fc fusion)
chain: B1 chain with C10E, R22P
notes: Tested from conditioned media
B14: ActRIIB-IgG1 Fc R40S, linker GGGGS (Fc fusion)
chain: B1 chain with C10E, R22S
notes: Tested from conditioned media
B15: ActRIIB-IgG1 Fc R40T, linker GGGGS (Fc fusion)
chain: B1 chain with C10E, R22T
notes: Tested from conditioned media
B16: ActRIIB-IgG1 Fc R40V, linker GGGGS (Fc fusion)
chain: B1 chain with C10E, R22V
notes: Tested from conditioned media
B17: ActRIIB-IgG1 Fc R40Y, linker GGGGS (Fc fusion)
chain: B1 chain with C10E, R22Y
notes: Tested from conditioned media
B18: ActRIIB-IgG1 Fc wild type, linker GGGGS (Fc fusion)
chain: B1 chain with C10E
notes: Tested from conditioned media
B19: ActRIIB-IgG1 Fc E28A, linker GGGGS (Fc fusion)
chain: B1 chain with C10A
notes: Tested from conditioned media
B20: ActRIIB-IgG1 Fc E28Q, linker GGGGS (Fc fusion)
chain: B1 chain with C10Q
notes: Tested from conditioned media
B21: ActRIIB-IgG1 Fc E28V, linker GGGGS (Fc fusion)
chain: B1 chain with C10V
notes: Tested from conditioned media
B22: ActRIIB-IgG1 Fc E28W, linker GGGGS (Fc fusion)
chain: B1 chain with C10W
notes: Tested from conditioned media
B23: ActRIIB-IgG1 Fc E28Y, linker GGGGS (Fc fusion)
chain: B1 chain with C10Y
notes: Tested from conditioned media
B24: ActRIIB-IgG1 Fc R40G, linker GGGGS (Fc fusion)
chain: B1 chain with C10E, R22G
notes: Tested from conditioned media
B25: ActRIIB-IgG1 Fc R40H, linker GGGGS (Fc fusion)
chain: B1 chain with C10E, R22H
notes: Tested from conditioned media
B26: ActRIIB-IgG1 Fc R40K, linker GGGGS (Fc fusion)
chain: B1 chain with C10E, R22K
notes: Tested from conditioned media
B27: ActRIIB-IgG1 Fc R40M, linker GGGGS (Fc fusion)
chain: B1 chain with C10E, R22M
notes: Tested from conditioned media
B28: ActRIIB-IgG1 Fc R40N, linker GGGGS (Fc fusion)
chain: B1 chain with C10E, R22N
notes: Tested from conditioned media
B29: ActRIIB-IgG1 Fc R40Q, linker GGGGS (Fc fusion)
chain: B1 chain with C10E, R22Q
notes: Tested from conditioned media
B30: ActRIIB5-IgG1 Fc wild type, no linker (Fc fusion)
chain: SGRGEAETRECIYYNANWELERTNQSGLERCEGEQDKRLHCYASWRNSSGTIELVKKGCWLDDFNCYDRQECVATEENPQVYFCCCEGNFCNERFTHLPEAGGPEGPWASTTIPSGGPEATAAAGDQGSGALWLCLEGPAHEAPELLGGPSVFLFPPKPKDILMISRTPEVTCVVVDVSHEDPEVKFNWYVGGVEVHNAKTKPREEQYNSTYRVVSVLTVLHQDWLNGKEYKCKVSNKALPAPIEKTISKAKGQPREPQVYTLPPSRDELTKNQVSLTCLVKGFYPSDIAVEWESNGQPENNYKTTPPVLDSDGSFFLYSKLTVDKSRWQQGNVFSCSVMHEALHNHYTQKSLSLSPGK
notes: Tested from conditioned media
B31: ActRIIB5-IgG1 Fc E28A, no linker (Fc fusion)
chain: B30 chain with E10A
notes: Tested from conditioned media
B32: ActRIIB5-IgG1 Fc R40A, linker GGGGS (Fc fusion)
chain: SGRGEAETRECIYYNANWELEATNQSGLERCEGEQDKRLHCYASWRNSSGTIELVKKGCWLDDFNCYDRQECVATEENPQVYFCCCEGNFCNERFTHLPEAGGPEGPWASTTIPSGGPEATAAAGDQGSGALWLCLEGPAHEGGGGSAPELLGGPSVFLFPPKPKDILMISRTPEVTCVVVDVSHEDPEVKFNWYVGGVEVHNAKTKPREEQYNSTYRVVSVLTVLHQDWLNGKEYKCKVSNKALPAPIEKTISKAKGQPREPQVYTLPPSRDELTKNQVSLTCLVKGFYPSDIAVEWESNGQPENNYKTTPPVLDSDGSFFLYSKLTVDKSRWQQGNVFSCSVMHEALHNHYTQKSLSLSPGK
notes: Tested from conditioned media
B33: ActRIIB5-IgG1 Fc E28A, linker GGGGS (Fc fusion)
chain: B32 chain with E10A, A22R
notes: Tested from conditioned media
B34: ActRIIB5-IgG1 Fc E28W R40A, linker GGGGS (Fc fusion)
chain: B32 chain with E10W
notes: Tested from conditioned media
B35: ActRIIB-IgG1 Fc E28A, linker 2(GGGGS) (Fc fusion)
chain: SGRGEAETRACIYYNANWELERTNQSGLERCEGEQDKRLHCYASWRNSSGTIELVKKGCWLDDFNCYDRQECVATEENPQVYFCCCEGNFCNERFTHLPEAGGPEVTYEPPPTAPTGGGGSGGGGSAPELLGGPSVFLFPPKPKDILMISRTPEVTCVVVDVSHEDPEVKFNWYVGGVEVHNAKTKPREEQYNSTYRVVSVLTVLHQDWLNGKEYKCKVSNKALPAPIEKTISKAKGQPREPQVYTLPPSRDELTKNQVSLTCLVKGFYPSDIAVEWESNGQPENNYKTTPPVLDSDGSFFLYSKLTVDKSRWQQGNVFSCSVMHEALHNHYTQKSLSLSPGK
notes: Tested from conditioned media

The molecules below were run against T1, Activin A (assay: Biacore SPR grade, COS transient conditioned media).
Experimental: (§1) Qualitative BIAcore® Assay. E28 and R40 were substituted respectively with other natural amino acids in fusions with IgG1 Fc as described above. Each vActRIIB-IgG1Fc sample from conditioned media was captured on goat anti-human IgG1 Fc antibody (Jackson Immuno Research, cat#109-005-098, lot 63550) coated CMS surface. 20 nM of Activin A was injected over captured sample surfaces using BIACore2000 (BIACore Life Sciences, Piscataway, N.J.). The resulting sensorgrams were normalized to the captured RL (500 RU) of vActRIIB-IgG1Fc variants. The normalized binding response (RU) for some variants are shown in Table 2, and is further described below. Relative binding affinity for activin was also determined by Biacore measurements using conditioned media obtained from mammalian cell expression. Activin A (20 nM) was used to capture soluble receptor polypeptide in the conditioned media and measured SPR signals were normalized. Normalized SPR of +++++: >60, ++++:40-60, +++:20-40, ++:10-20, +: 5-10, −: <5.

Q: With B1 as the molecule, how does the “normalized SPR signal” value read?
A: < 5 ru

Q: How did the “normalized SPR signal” value turn out when B2 was run?
A: < 5 ru

Q: With B3 as the molecule, how does the “normalized SPR signal” value read?
A: < 5 ru

Q: With B4 as the molecule, how does the “normalized SPR signal” value read?
A: < 5 ru

Q: Which “normalized SPR signal” value does the source give for B5 here?
A: < 5 ru

Q: Which “normalized SPR signal” value does the source give for B6 here?
A: < 5 ru

Q: Which “normalized SPR signal” value does the source give for B7 here?
A: < 5 ru

Q: For B8, which “normalized SPR signal” value is on record?
A: < 5 ru

Q: With B9 as the molecule, how does the “normalized SPR signal” value read?
A: < 5 ru

Q: How did the “normalized SPR signal” value turn out when B10 was run?
A: < 5 ru

Q: B11 was tested. Which “normalized SPR signal” value did it give?
A: < 5 ru

Q: With B12 as the molecule, how does the “normalized SPR signal” value read?
A: < 5 ru

Q: For B13, which “normalized SPR signal” value is on record?
A: < 5 ru

Q: For B14, which “normalized SPR signal” value is on record?
A: < 5 ru

Q: For B15, which “normalized SPR signal” value is on record?
A: < 5 ru

Q: Which “normalized SPR signal” value does the source give for B16 here?
A: < 5 ru

Q: Which “normalized SPR signal” value does the source give for B17 here?
A: < 5 ru

Each molecule was assayed against T1, Activin A (assay: Biacore SPR grade, COS transient conditioned media, 20 nM activin A).
Experimental: as §1

Q: Which “normalized SPR signal” value does the source give for B18 here?
A: 5 to 10 ru

Q: With B19 as the molecule, how does the “normalized SPR signal” value read?
A: 5 to 10 ru

Q: With B20 as the molecule, how does the “normalized SPR signal” value read?
A: 5 to 10 ru

Q: With B21 as the molecule, how does the “normalized SPR signal” value read?
A: 5 to 10 ru

Q: How did the “normalized SPR signal” value turn out when B22 was run?
A: > 60 ru

Q: How did the “normalized SPR signal” value turn out when B23 was run?
A: > 60 ru

Q: B24 was tested. Which “normalized SPR signal” value did it give?
A: 20 to 40 ru

Q: How did the “normalized SPR signal” value turn out when B25 was run?
A: 10 to 20 ru

Q: B26 was tested. Which “normalized SPR signal” value did it give?
A: 10 to 20 ru

Q: With B27 as the molecule, how does the “normalized SPR signal” value read?
A: 5 to 10 ru

Q: How did the “normalized SPR signal” value turn out when B28 was run?
A: 10 to 20 ru

Q: For B29, which “normalized SPR signal” value is on record?
A: 5 to 10 ru

The molecules below were run against T1, Activin A (assay: Biacore SPR grade, CHO stable conditioned media, 20 nM activin A).
Experimental: as §1

Q: With B30 as the molecule, how does the “Normalized SPR” value read?
A: 20 to 40 ru

Q: With B31 as the molecule, how does the “Normalized SPR” value read?
A: 20 to 40 ru

Q: How did the “Normalized SPR” value turn out when B18 was run?
A: 40 to 60 ru

Q: B19 was tested. Which “Normalized SPR” value did it give?
A: 20 to 40 ru

Q: For B32, which “Normalized SPR” value is on record?
A: 20 to 40 ru

Q: B33 was tested. Which “Normalized SPR” value did it give?
A: 20 to 40 ru

Q: B34 was tested. Which “Normalized SPR” value did it give?
A: 40 to 60 ru

Q: For B35, which “Normalized SPR” value is on record?
A: 20 to 40 ru

Each molecule was assayed against Myostatin (human) (UniProt O14793) (assay: cell-based or functional assay).
Chain of Myostatin (human) (O14793 267-375 limits assumed): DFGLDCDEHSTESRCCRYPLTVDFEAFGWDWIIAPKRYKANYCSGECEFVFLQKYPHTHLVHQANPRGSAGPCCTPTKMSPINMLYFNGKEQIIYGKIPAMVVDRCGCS

Q: How did the IC50 (nM) for myostatin cell based assay, C2C12/pMARE-luc, 4 nM myostatin turn out when “hActRIIB-hIgG2Fc (E28W) (SEQ ID NO: 91) (Fc fusion)” was run?
A: 0.9 nM

Q: How did the IC50 (nM) for myostatin cell based assay, C2C12/pMARE-luc, 4 nM myostatin turn out when “hActRIIB-hIgG2Fc (SEQ ID NO: 89) (Fc fusion)” was run?
A: 1.1 nM

Q: “hActRIIB-hIgG2Fc (E28Y) (SEQ ID NO: 93) (Fc fusion)” was tested. Which IC50 (nM) for myostatin cell based assay, C2C12/pMARE-luc, 4 nM myostatin did it give?
A: 1 nM
